Data on one molecule can be found in US20240100152A1 (UNIVERSITY OF PITTSBURGH OF THE COMMONWEALTH SYSTEM OF …, published 2024).

The assay concerns the target T1, human α7 nicotinic acetylcholine receptor (α7nAChR) expressed on HEK293T/17 cells (human, UniProt P36544 23-502).
T1 construct: whole, on cells
The assay can be described thus: live-cell fluorescent labeling of transfected HEK293 cells.

T1 sequence (P36544 23-502): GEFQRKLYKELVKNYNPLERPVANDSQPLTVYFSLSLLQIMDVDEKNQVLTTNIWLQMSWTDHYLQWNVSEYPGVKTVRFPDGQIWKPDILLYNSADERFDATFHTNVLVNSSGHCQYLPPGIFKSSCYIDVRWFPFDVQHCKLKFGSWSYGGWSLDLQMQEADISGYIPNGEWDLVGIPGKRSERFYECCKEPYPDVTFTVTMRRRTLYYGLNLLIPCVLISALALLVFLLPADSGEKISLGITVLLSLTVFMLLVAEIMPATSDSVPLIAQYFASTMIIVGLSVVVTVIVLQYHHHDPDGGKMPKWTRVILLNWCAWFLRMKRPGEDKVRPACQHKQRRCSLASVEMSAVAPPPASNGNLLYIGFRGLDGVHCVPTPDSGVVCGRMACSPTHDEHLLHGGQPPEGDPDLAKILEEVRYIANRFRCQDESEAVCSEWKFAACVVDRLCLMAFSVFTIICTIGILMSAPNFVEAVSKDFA

B1: α-bungarotoxin Alexa Fluor 594 conjugate (ligand)
chain: IVCHTTATSPISAVTCPPGENLCYRKMWCDAFCSSRGKVVELGCAATCPSKKPYEEVTCCSTDKCNPHPKQRPG
In the case of B1, the binding result was “binds”.
